# Results: patent US20080233131A1
# Legend:
# [1] = biological target: cynomolgus macaque CD4 on lymphocytes / PBMC (cynomolgus macaque (Macaca fascicularis)) (UniProt P79185); assay: flow cytometry of whole blood of TRX1-treated macaques; competitor SK3-RPE
# [2] = biological target: cynomolgus macaque CD4 on lymphocytes / PBMC (cynomolgus macaque (Macaca fascicularis)) (UniProt P79185); assay: flow cytometry of whole blood of TRX1-immunised macaques; competitor 7E14-RPE
# Chain of UniProt P79185 (P79185 26-458 limits assumed): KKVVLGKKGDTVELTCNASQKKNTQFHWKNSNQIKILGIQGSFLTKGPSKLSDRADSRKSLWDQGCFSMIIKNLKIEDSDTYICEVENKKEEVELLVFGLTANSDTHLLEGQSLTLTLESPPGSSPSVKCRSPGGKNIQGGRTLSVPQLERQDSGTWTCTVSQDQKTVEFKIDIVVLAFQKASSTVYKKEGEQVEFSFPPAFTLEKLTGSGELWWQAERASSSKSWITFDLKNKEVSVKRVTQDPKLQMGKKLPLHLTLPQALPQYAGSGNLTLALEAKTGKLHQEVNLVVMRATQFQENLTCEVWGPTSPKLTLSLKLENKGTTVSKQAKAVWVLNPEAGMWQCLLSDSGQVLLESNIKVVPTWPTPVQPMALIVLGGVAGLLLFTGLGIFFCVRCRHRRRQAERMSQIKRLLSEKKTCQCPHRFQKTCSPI
substance,measurement,setting,value
humanized anti-human CD4 monoclonal antibody TRX1,reduction in the MFI of SK3 staining,[1],50%
same,reduction in the MFI of 7E14 staining,[2],50%
